Assay results reported in patent US20220144936A1 (SINOCELLTECH, published 2022).
Where “and” joins values, the source holds several entries; their conditions need not be identical. Identical values can stand only once.

What was measured:
[1] = target: T1, recombinant human IL17A protein (human, UniProt Q16552 24-155); assay: cell-based or functional assay
[2] = target: T1, recombinant human IL17A protein; assay: cell-based or functional assay; remark: listed apart in the source
[3] = target: T2, recombinant human IL17A/F dimer protein (SinoBiological, Inc., CT047-HNAE) (human, UniProt Q16552 24-155; Q96PD4 31-163); assay: cell-based or functional assay
T2 sequence (Q16552 24-155 limits assumed, chain 1 of 2): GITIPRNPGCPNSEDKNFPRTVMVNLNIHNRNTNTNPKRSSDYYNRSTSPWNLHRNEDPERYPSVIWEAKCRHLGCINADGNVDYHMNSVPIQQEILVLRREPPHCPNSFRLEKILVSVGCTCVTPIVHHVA
T2 sequence (Q96PD4 31-163 limits assumed, chain 2 of 2): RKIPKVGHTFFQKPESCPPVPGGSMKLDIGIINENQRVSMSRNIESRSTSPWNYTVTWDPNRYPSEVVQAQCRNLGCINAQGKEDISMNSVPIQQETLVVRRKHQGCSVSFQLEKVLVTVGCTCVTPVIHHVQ

[4] = target: T3, mouse mIL17A protein (Sino Biological, Inc.) (mouse, UniProt Q62386 26-158); assay: ELISA, coated antigen, goat anti-human IgG Fc/HRP
T3 construct: also called mouse IL17A protein
T3 sequence (looked up): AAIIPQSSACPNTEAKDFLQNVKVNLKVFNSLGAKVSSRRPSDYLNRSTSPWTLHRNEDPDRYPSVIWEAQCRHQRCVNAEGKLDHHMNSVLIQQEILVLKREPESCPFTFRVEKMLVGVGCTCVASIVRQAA

[5] = target: T1, recombinant human IL17A protein; assay: Octet (BLI), biotinylated IL17A, antibody 0.42-3.47 nM
[6] = target: T2, recombinant human IL17A/F dimer protein …; assay: Octet (BLI), biotinylated IL17A/F, antibody 0.42-3.47 nM
[7] = target: T1, recombinant human IL17A protein; assay: competition ELISA: IL17A coated, competitor IL17RA-His-biotin at 2 µg/mL, antibody varied
[8] = target: T2, recombinant human IL17A/F dimer protein …; assay: competition ELISA: IL17RA-Fc coated (competitor), IL17A/F-Biotin at 0.8 µg/mL, antibody varied
[9] = target: T1, recombinant human IL17A protein; assay: ELISA: IL17A coated at different concentrations, antibody fixed at 2 µg/mL, anti-human IgG Fc/HRP; EC50 is on the antigen concentration
[10] = target: T2, recombinant human IL17A/F dimer protein …; assay: ELISA: IL17A/F coated at different concentrations, antibody fixed at 2 µg/mL, anti-human IgG Fc/HRP; EC50 is on the antigen concentration

T1 sequence (Q16552 24-155 limits assumed): as the sequence (Q16552 24-155 limits assumed, chain 1 of 2) above

Row | Binder | EC50 of blocking IL17A-induced IL-6 secretion of HFF cells [1] | EC50 (µg/mL), blocking IL17A-induced IL6 secretion of HFF cells [2] | EC50 (µg/mL), blocking IL17A/F-induced IL6 secretion of HFF cells [3] | binding result [4] | Kd [5] | koff [5] | kon [5] | Kd [6] | koff [6] | kon [6] | IC50 [7] | IC50 [8] | EC50 [9] | EC50 [10]
1 | murine antibody IL17A-M069 (antibody, mouse IgG1, V domains shown) VH: QAHLQQSGAELVRPGASVKLSCKALGYTFTDYEMHWVKQTPVHGLEWIGVIHPGGGGTAYNQKFKGKATLTADKSSSTAYMELSSLTSEDSAVYYCTRGDHDGRTDYWGQGTTLTVSS VL: DIVMSQSPSSLAMSVGQKVTMNCKSNQSLLNRSNQKNYLAWYQQKPGQSPKLLVDFASTRESGVPDRFIGSGSGTDFSLTISSVQAEDLADYFCQQHYTTPFTFGSGTKLEIK | 0.243 µg/mL |  |  |  |  |  |  |  |  |  |  |  |  | 
2 | humanized antibody IL17A-H069 (antibody, human IgG1, kappa, V domains shown, Humanized IgG1/kappa made in CHO-K1-GS cells) VH: EVQLVQSGAEVKKPGATVKISCKASGYTFTDYEMHWVQQAPGHGLEWMGVIHPGGGGTAYNQKFKGRVTITADTSTDTAYMELSSLRSEDTAVYYCTRGDHDGRTDYWGQGTLVTVSS VL: not shown |  | 0.2 µg/mL and 0.19 µg/mL | 1.19 µg/mL and 0.83 µg/mL | no binding | 0.0288 nM | 1.93e-05 s⁻¹ | 671000 M⁻¹ s⁻¹ | 0.537 nM | 7.72e-05 s⁻¹ | 144000 M⁻¹ s⁻¹ | 0.5 µg/mL | 1.02 µg/mL | 0.046 µg/mL | 0.0363 µg/mL
